Experimental findings from patent publication US20250388696A1 (NAVIGO PROTEINS, published 2025) are described below.

Numbering of substitutions follows the chain as printed.

Test [1] concerns the target T1, Her2 (immobilised on the SPR chip) (human, UniProt P04626 23-652, limits assumed).
T1 construct: construct not described; also called human epidermal growth factor receptor 2
The test can be described thus: SPR, Her2 immobilised on the chip, pH 7.3, 1:1 Langmuir fit. The method, then: (§1) Recombinant protein A, HSA, MSA or target (either ED-B or Her2) was immobilized on a High Capacity Amine sensor chip (Bruker) after NHS/EDC activation with a Sierra SPR-32 system (Bruker). The chip was equilibrated with SPR running buffer (PBS 0.05%, Tween pH 7.3). Injection of ethanolamine after target immobilization was used to block free NHS groups. To determine the binding of fusion proteins to FAP, the Fc-tagged target was injected with 60 or 30 nM to Protein A coupled spots followed by the injection of fusion proteins.
(§2) Binding proteins were applied to the chip in serial dilutions with a flow rate of 30 μl/min. Upon binding, analyte accumulated on the surface increasing the refractive index. This change in the refractive index was measured in real time and plotted as response or resonance units versus time. The association was performed for 120 seconds and the dissociation for 180 seconds. After each run, the chip surface was regenerated with 30 μl regeneration buffer (10 mM glycine pH 2.0 or pH 1.5) and equilibrated with running buffer. Binding studies were carried out using the Sierra SPR-32 system (Bruker); data evaluation was operated via the Sierra Analyser software, provided by the manufacturer, by the use of the Langmuir 1:1 model (RI=0).

The target of test [2] is T2, Her2-Fc (human, UniProt P04626 23-652).
T2 construct: Coated in ELISA
The test can be described thus: ELISA on coated Her2-Fc; 24 h in mouse serum at 37 C. The method, then:
(§3) High binding plates (Greiner, 781061) were immobilized with 2.5 μg/ml hFAP-Fc or 1.2 μg/ml Her2-Fc over night at 4° C. Dilution series of 3 μM to 0.07 pM of fusion proteins with binding specifically to Her2 were incubated in 100% human serum or 100% mouse serum for 24 h at 37° C. Dilution series of 3 µM to 0.2 pM or 1 μM to 0.01 fM of fusion proteins with binding specifically to hFAP were incubated in 100% human serum or 100% mouse serum for 24 h at 37° C. ELISA-plates were washed three times with PBST (PBS+0.1% Tween) and blocked with 3% BSA/0.5% Tween/PBS up to 2 h at room temperature (rt). After preincubation for 0 h or 24 h in the presence of serum the dilution series were incubated on ELISA-plates for up to 1 h at rt. Wells were washed with PBST and incubated with biotinylated anti-ubiquitin-antibody (1:300) for up to 1 h at rt. The binding was visualized with Streptavidin-HRP (1:5.000).
(§4) The fusion proteins comprise the albumin binding domain (referred to as HED) and the targeting moiety.

Test [3] deals with T2, Her2-Fc. The test can be described thus: ELISA on coated Her2-Fc; after 24 h in mouse serum at 37 C. The method, then: as §3, §4
For test [4], the target named is T3, human serum albumin (human, UniProt P02768 25-609).
T3 construct: also called HSA
T3 sequence (P02768 25-609 limits assumed): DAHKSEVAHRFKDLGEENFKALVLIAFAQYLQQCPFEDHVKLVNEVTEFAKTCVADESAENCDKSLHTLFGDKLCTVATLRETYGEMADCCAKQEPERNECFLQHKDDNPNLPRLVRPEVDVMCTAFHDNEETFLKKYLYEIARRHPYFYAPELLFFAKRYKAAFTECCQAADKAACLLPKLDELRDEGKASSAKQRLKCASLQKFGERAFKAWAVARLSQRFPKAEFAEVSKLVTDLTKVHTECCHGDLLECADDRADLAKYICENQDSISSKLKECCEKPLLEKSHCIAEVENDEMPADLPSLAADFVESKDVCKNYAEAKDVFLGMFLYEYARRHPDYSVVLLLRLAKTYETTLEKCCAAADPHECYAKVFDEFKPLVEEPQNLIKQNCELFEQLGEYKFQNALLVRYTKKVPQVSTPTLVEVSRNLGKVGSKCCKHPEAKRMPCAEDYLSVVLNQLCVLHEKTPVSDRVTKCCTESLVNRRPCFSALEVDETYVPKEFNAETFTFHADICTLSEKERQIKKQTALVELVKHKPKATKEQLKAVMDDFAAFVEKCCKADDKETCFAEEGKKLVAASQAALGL
The test can be described thus: SPR, HSA immobilised on the chip, pH 7.3, 1:1 Langmuir fit. As for the experimental part:
as §1, §2

The target of test [5] is T2, Her2-Fc. The test can be described thus: ELISA on coated Her2-Fc; KD 24 h against KD 0 h, mouse serum. The method, then:
as §3, §4

Test [6] deals with T2, Her2-Fc. The test can be described thus: ELISA on coated Her2-Fc; after 24 h in human serum at 37 C. The method, then: as §3, §4
Test [7] concerns the target T2, Her2-Fc. The test can be described thus: ELISA on coated Her2-Fc; 24 h in human serum at 37 C. The method, then:
as §3, §4

In test [8] the target is T2, Her2-Fc. The test can be described thus: ELISA on coated Her2-Fc; 0 h in human serum. As for the experimental part:
as §3, §4

Test [9] addresses T2, Her2-Fc. The test can be described thus: ELISA on coated Her2-Fc; 0 h in mouse serum. As for the experimental part:
as §3, §4

The target of test [10] is T4, Her2 expressed on Sk-Br-3 cells (human, UniProt P04626 23-1255).
T4 construct: whole, on cells; also called human epidermal growth factor receptor 2
The test can be described thus: flow cytometry, dilution series on Sk-Br-3 cells. As for the experimental part:
Her2 expressing Sk-Br-3-cells and HEK293-hFAP overexpressing cells were thawed, washed with medium containing FCS, subsequently washed with FACS blocking buffer (PBS/0.1% Sodium Azide/3% FCS) and 100 μl seeded in 96-well round bottom plates with a density of 1×10⁶ cells/ml. Dilution series from 10 µM to 8.6 fM (CID 217781, CID 217787) and a dilution series of 3 µM to 0.2 μM (CID 218466, CID 218467, 218512, CID 218513, CID 218514, CID 218515, CID 218516) were incubated on Her2-expressing Sk-Br-3-cells and dilution series from 1 μM to 0.07 μM of fusion proteins 218690 and 218702 were incubated on hFAP-overexpressing HEK293-cell line for 45 min at 4° C. After centrifugation the supernatants were removed and cells were washed with FACS blocking buffer and 100 μl/well rabbit anti-Strep-Tag antibody (GenScript; A00626), 1:300 diluted in FACS blocking buffer were added. After removal of the primary antibody goat anti-rabbit IgG Alexa Fluor 488 antibody (Invitrogen; A4008) was applied in a 1:1000 dilution in FACS blocking buffer. Flow cytometry measurement was conducted on the Guava easyCyte 5HT device from Merck-Millipore at excitation wavelength 488 nm and emission wavelength 525/30 nm. The * in table 2 refers to a fusion protein with the albumin binding domain as dimer (homo-dimer) and/or the targeting moiety as dimer.

Test [11] has as its target T2, Her2-Fc. The test can be described thus: ELISA on coated Her2-Fc; KD 24 h against KD 0 h, human serum. The method, then: as §3, §4

B1: fusion protein 218515 (designed binder, not shown: small tags and cut ends)
chain (part 1 of 2): not shown
chain (part 2 of 2): LAEAKVLALKELDKYGISNYYKNLINNAKTIEGVKALKAQIVAA
notes: also called CID 218515
Consider B1, for which the Kd was found to be 2500 pM in [1]; 210 pM in [2]; 9100 pM in test [4]; 280 pM in test [7]; 340 pM in test [8]; 180 pM in test [9]. Further, the affinity in [10], expressed as Kd, was 1470 pM. In addition, the “max binding after 24 h [%]” value in test [3] stood at 108%; in [6], 96.1%. The figures for the “increase of KD vs target [fold]” value in [5] and in [11] were 1.16 fold and 0.82 fold, respectively.

B2: fusion protein 218516 (designed binder, not shown: small tags and cut ends)
chain (part 1 of 2): not shown
chain (part 2 of 2): B1 chain (part 2 of 2) with L9I, Y15A, K22F, I31V
notes: also called CID 218516
As for B2, the Kd in [1] worked out at 2400 pM; in test [2], 200 pM; in [4], 10900 pM; in [7], 280 pM; in test [8], 390 pM; in test [9], 170 pM. In addition, in test [10], binding was characterised by a dissociation constant (Kd) of 2570 pM. In addition, the results for the “max binding after 24 h [%]” value in test [3] and in test [6] were 101% and 98.9%, respectively. The results for the “increase of KD vs target [fold]” value in test [5] and in test [11] were 1.21 fold and 0.71 fold, respectively.
